Laboratory results: patent US20200262920A1 (AMPHIVENA THERAPEUTICS, published 2020)
Several values for one entry are separate records, joined by “and”; a condition that tells them apart may be missing. Identical values can stand only once.

How the values were obtained:
[1] = molecular target: T1, human CD33 (human, UniProt P20138 18-364); test: cell-based or functional assay
[2] = molecular target: T2, human CD3 (human, UniProt P07766 23-207; P09693 23-182; P04234 22-171; P20963 22-164); test: cell-based or functional assay
T2 sequence (P07766 23-207, chain 1 of 4): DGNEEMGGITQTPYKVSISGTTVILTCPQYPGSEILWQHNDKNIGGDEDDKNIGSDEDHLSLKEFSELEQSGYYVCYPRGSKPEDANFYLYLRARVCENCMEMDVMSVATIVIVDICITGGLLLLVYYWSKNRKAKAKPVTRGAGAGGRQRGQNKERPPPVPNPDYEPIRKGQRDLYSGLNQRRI
T2 sequence (P09693 23-182, chain 2 of 4): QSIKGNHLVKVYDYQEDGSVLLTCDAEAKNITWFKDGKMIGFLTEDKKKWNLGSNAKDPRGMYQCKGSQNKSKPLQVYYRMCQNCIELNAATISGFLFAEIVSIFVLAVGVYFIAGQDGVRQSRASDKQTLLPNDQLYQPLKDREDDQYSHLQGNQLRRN
T2 sequence (P04234 22-171, chain 3 of 4): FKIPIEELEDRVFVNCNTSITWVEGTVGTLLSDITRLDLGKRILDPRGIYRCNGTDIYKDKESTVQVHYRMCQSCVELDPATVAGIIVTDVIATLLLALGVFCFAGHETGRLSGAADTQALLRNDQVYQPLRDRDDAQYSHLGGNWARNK
T2 sequence (P20963 22-164, chain 4 of 4): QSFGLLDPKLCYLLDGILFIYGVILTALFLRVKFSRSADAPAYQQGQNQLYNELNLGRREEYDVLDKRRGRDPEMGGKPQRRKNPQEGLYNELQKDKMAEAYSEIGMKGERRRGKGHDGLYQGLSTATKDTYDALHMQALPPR

[3] = molecular target: T2, human CD3; test: flow cytometry, human T-cells
[4] = molecular target: T1, human CD33; test: flow cytometry titration, KG-1 cells
How it was run: (§1)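 Cells titrated with CD33/CD3 2×2 T-cell engagers, detected via anti-His then FITC anti-mouse IgG on ice, with PI exclusion of dead cells. Background-subtracted mean fluorescence fit to one-site binding for KD; cross-reactivity ratio from KDs on CHO cells expressing recombinant cynomolgus or human CD33.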

[5] = molecular target: T1, human CD33; test: cell-based or functional assay; remark: listed apart in the source
[6] = molecular target: T1, human CD33; test: cell-based or functional assay; remark: listed apart in the source
[7] = molecular target: T2, human CD3; test: flow cytometry titration, T cells (human CD3+)
[8] = molecular target: T1, human CD33; test: flow cytometry titration, U-937 cells
How it was run: as §1

[9] = molecular target: T1, human CD33; test: flow cytometry, HL-60 cells
[10] = molecular target: T1, human CD33; test: cell-based or functional assay; remark: listed apart in the source
[11] = molecular target: T1, human CD33; test: flow cytometry titration, HL-60 cells
How it was run: as §1

[12] = molecular target: T1, human CD33; test: cell-based or functional assay; remark: listed apart in the source

T1 sequence (P20138 18-364): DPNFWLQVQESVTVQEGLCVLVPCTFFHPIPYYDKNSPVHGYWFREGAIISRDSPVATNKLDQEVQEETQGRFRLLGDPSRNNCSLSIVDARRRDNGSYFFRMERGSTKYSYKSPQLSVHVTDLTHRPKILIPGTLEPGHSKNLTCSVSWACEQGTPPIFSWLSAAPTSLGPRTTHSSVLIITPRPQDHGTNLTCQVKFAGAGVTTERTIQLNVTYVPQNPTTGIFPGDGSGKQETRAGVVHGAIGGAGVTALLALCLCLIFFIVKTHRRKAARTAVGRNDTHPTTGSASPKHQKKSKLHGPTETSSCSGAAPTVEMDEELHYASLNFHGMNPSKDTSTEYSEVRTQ

IC50, lysis of KG-1 cells (separate experiment) [1]: 5 pM
IC50, lysis of KG-1 cells with human T cells [1]: ~0.5 pM
CD25 Induction EC50 [2]: 1 pM
CD69 Induction EC50 [2]: 2 pM
T cell Proliferation in PBMC EC50 [2]: 3 pM
Kd [3]: 5100 pM
Kd [4]: 200 pM
EC50, calcein-release lysis of HL-60, 30 min incubation [5]: 4.8 pM
EC50, calcein-release lysis of HL-60, 60 min incubation [5]: 2.5 pM
EC50, calcein-release lysis of HL-60, 120 min incubation [5]: 1.6 pM
EC50, calcein-release lysis of HL-60, 180 min incubation [5]: 1.6 pM
EC50, calcein-release lysis of HL-60, 240 min incubation [5]: 1.5 pM
EC50, calcein-release lysis of HL-60, 300 min incubation [5]: 1.6 pM
Kd [7]: 2100 pM
Kd [8]: 300 pM
Kd [9]: 300 pM
Kd [11]: 300 pM
EC50 (mean), redirected lysis of BV-173 cells [12]: 3.2 pM
EC50 (mean), redirected lysis of CHO-CD33 cells [12]: 24 pM
EC50 (mean), redirected lysis of HL-60 cells [12]: 1.6 pM
EC50 (mean), redirected lysis of K562 cells [12]: 4.8 pM
EC50 (mean), redirected lysis of KASUMI-1 cells [12]: 2.4 pM
EC50 (mean), redirected lysis of KG-1 cells [12]: 1.9 pM
EC50 (mean), redirected lysis of RPMI-8226 cells [12]: 2.8 pM
EC50 (mean), redirected lysis of THP-1 cells [12]: 6 pM
EC50 (mean), redirected lysis of U-937 cells [12]: 1.3 pM
B1: CD33/CD3 2×2 T-cell engager 16 (bispecific antibody)
chain: DIQMTQSPSSLSASVGDRVTITCRSSTGAVTTSNYANWVQQKPGKAPKALIGGTNKRAPGVPSRFSGSLIGDKATLTISSLQPEDFATYYCALWYSNLWVFGQGTKVEIKGGSGGSQVQLVQSGAEVKKPGASVKVSCKASGYTFTSYDINWVRQAPGQGLEWMGWMNPNSGNTGFAQKFQGRVTMTRDTSTSTVYMELSSLRSEDTAVYYCARDRANTDYSLGMDVWGQGTLVTVSSGGSGQSVLTQPPSASGTPGQRVTISCSGSRSNIGSNTVNWYQQLPGTAPKLLIYGNNQRPSGVPDRFSGSKSGTSASLAISGLQSEDEADYYCATWDDSLIGWVFGGGTKLTVLGGSGGSEVQLVESGGGLVQPGGSLRLSCAASGFTFSTYAMNWVRQAPGKGLEWVGRIRSKYNNYATYYADSVKDRFTISRDDSKNSLYLQMNSLKTEDTAVYYCARHGNFGNSYVSYFAYWGQGTLVTVSSAAAGSHHHHHH
notes: Non-covalent homodimer; also called AMV564; AMV 564
EC50 on HL-60 (cytotoxicity) [6]: 1.5 pM
EC50, cytotoxicity on HL-60 [10]: 1.5 pM and 158 pg/mL
EC50, cytotoxicity on KG-1 [10]: 1.8 pM and 189 pg/mL
EC50, cytotoxicity on U-937 [10]: 1.9 pM and 200 pg/mL
EC50, cytotoxicity, mean of HL-60, U-937, KG-1 [10]: 1.7 pM and 179 pg/mL
